Patent publication US20110212853A1, “NOVEL DIAGNOSTIC METHOD” (PROBIODRUG AG, priority 2010, published 2011)

Tests used:
recombinant human DP4 = recombinant human DP4 (Homo sapiens, UniProt P27487); assay: N-terminal degradation of human MCP-2, MCP-3 and MCP-4 by DP4, Maldi-TOF mass spectrometry; format: in vitro ADME; settings: for proteolytic degradation by DP4 with N-terminal pGlu-residue: pre-incubated with recombinant human QC 3 h, then DP4; for truncation by DP4 of uncyclized variants starting with N-terminal glutamine: recombinant human DP4, 30° C.
Protocol: Resulting DP4 cleavage products were analyzed using Maldi-TOF mass spectrometry after 0 min, 15 min, 30 min, 1 h, 2 h, 4 h and 24 h.
(§1) MCP-3 was either pre-incubated with recombinant human QC (0.0006 mg/ml) for 3 h at 30° C. and subsequently incubated with recombinant human DP4 (0.00012 mg/ml) at 30° C. or incubated with recombinant human DP4 (0.00012 mg/ml) without prior QC application. Resulting DP4 cleavage products were analyzed using Maldi-TOF mass spectrometry after 0 min, 15 min, 30 min, 1 h, 2 h, 4 h and 24 h.
as §1, with “MCP-4” for “MCP-3”, “(0.00006” for “(0.00012”

human THP-1 monocytes = assay: TransWell chemotaxis assay; format: cell-based; settings: for influence of pGlu-formation at the N-terminus on chemotactic potency: compared to the respective glutamine-precursors, FIG. 11; for chemotactic potency of N-truncated DP4 cleavage products: truncation by 2 amino acids, FIG. 13; for MCP-1 concentrations needed to elicit the maximum response: after incubation with human DP4, with (pGlu^1) or without (Gln^1) QC pre-incubation, FIG. 12
Protocol: The chemotaxis assay was performed using 24 well TransWell plates with a pore size of 5 μm (Corning). THP-1 cells were suspended in RPMI1640 in a concentration of 1*10^6 cells/100 μl and applied in 100 μl aliquots to the upper chamber. Cells were allowed to migrate towards the chemoattractant for 2 h at 37° C. Subsequently, cells from the upper chamber were discarded and the lower chamber was mixed with 50 μl 70 mM EDTA in PBS and incubated for 15 min at 37° C. to release cells attached to the membrane. Afterwards, cells migrated to the lower chamber were counted using a cell counter system (Schärfe System). The chemotactic index was calculated by dividing cells migrated to the stimulus from cells migrated to the negative control.
MCP-1 starting with glutamine 1 (Gln^1-MCP-1) (Peprotech) was incubated with recombinant human QC to generate pGlu^1-MCP-1, or with human recombinant DP4 to generate Asp^3-MCP-1. Concentrations of 1, 5, 10, 50, 100, 500 and 1000 ng/ml of the generated MCP-1 variants were tested using the THP-1 chemotaxis assay (n=3).
MCP-1 with N-terminal glutamine (Gln^1-MCP-1) (Peprotech) was incubated with recombinant human QC and DP4 (Gln^1-MCP-1+QC+DP4), human recombinant DP4 alone (Gln^1-MCP+DP4) and with recombinant human QC in combination with 10 μM of QC-inhibitor 1-(3-(1H-imidazol-1-yl)propyl)-3-(3,4-dimethoxyphenyl)thiourea hydrochloride and DP4 (Gln^1-MCP-1+QC+QCI+DP4). Concentrations of 1, 5, 10, 50, 100, 500 and 1000 ng/ml of generated MCP-1 variants were tested using chemotaxis assay (n=3).
Concentrations of 1, 5, 10, 50, 100, 500 and 1000 ng/ml of a particular MCP were tested using chemotaxis assay (n=3).
For the generation of the DP4 cleavage product, the respective MCPs were incubated with human recombinant DP4 at a 1:100 dilution for 2 h at 30° C. prior to assay. Concentrations of 1, 5, 10, 50, 100, 500 and 1000 ng/ml of a particular MCP were tested using chemotaxis assay (n=3).

[1] = test system: DP4 or a DP4-like activity in human serum; assay: Degradation of Gln1-MCP-1 in human serum in presence of DP4 inhibitor; format: biochemical; settings: 9.6 μM inhibitor, 24 h, FIG. 7C
Protocol: (§2) For cyclization of the N-terminal glutamine residue into pyroglutamate, MCP-1 was incubated with recombinant human QC for 3 h prior to assay start. In addition, Gln^1-MCP-1 was incubated in human serum in the presence of 9.6 μM DP4 Inhibitor Isoleucyl-Thiazolidide (P32/98) for 24 h (C). The cleavage products were analyzed after 0 min, 10 min, 30 min, 1 h, 2 h, 3 h 5 h and 7 h for Gln^1-MCP-1, 0 min, 30 min, 1 h, 2 h, 3 h 5 h, 7 h and 24 h for pGlu^1-MCP-1 and 0 min, 1 h, 2 h, 3 h, 5 h, 7 h and 24 h for Gln^1-MCP-1 in combination with Isoleucyl-Thiazolidide using Maldi-TOF mass spectrometry.
(§3) Human recombinant MCP-1 carrying an N-terminal glutaminyl residue (Peprotech) was dissolved in 25 mM Tris/HCl, pH 7.6, in a concentration of 100 μg/ml. MCP-1 was either pre-incubated with recombinant human QC (0.006 mg/ml) for 3 h at 30° C. and subsequently incubated with human serum at 30° C. or incubated with human serum without addition of QC. The cleavage products were analyzed using Maldi-TOF mass spectrometry after 0 min, 10 min, 30 min, 1 h, 2 h, 3 h 5 h and 7 h for Gln^1-MCP-1 and 0 min, 30 min, 1 h, 2 h, 3 h 5 h, 7 h and 24 h for pGlu^1-MCP-1.

[2] = N-terminal degradation of human MCP-1 in human serum, Maldi-TOF mass spectrometry; format: in vitro ADME
Protocol: as §2
Matrix-assisted laser desorption/ionization mass spectrometry was carried out using the Voyager De-Pro (Applied Biosystems, Darmstadt) with a linear time of flight analyzer. The instrument was equipped with a 337 nm nitrogen laser, a potential acceleration source and a 1.4 m flight tube. Detector operation was in the positive-ion mode. Samples (5 μl) were mixed with equal volumes of the matrix solution. For matrix solution sinapinic acid was used, prepared by solving 20 mg sinapinic acid (Sigma-Aldrich) in 1 ml acetonitrile/0.1% TFA in water (1/1, v/v). A small volume (≈1 μl) of the matrix-analyte-mixture was transferred to a probe tip.
as §3

MCP-1 receptors = MCP-1 receptors (Homo sapiens, UniProt P41597); settings: cited from earlier work
[3] = incubation with human serum without QC pre-incubation, FIG. 7A

Sequence of recombinant human DP4 (P27487 whole entry, the tested form may be a part): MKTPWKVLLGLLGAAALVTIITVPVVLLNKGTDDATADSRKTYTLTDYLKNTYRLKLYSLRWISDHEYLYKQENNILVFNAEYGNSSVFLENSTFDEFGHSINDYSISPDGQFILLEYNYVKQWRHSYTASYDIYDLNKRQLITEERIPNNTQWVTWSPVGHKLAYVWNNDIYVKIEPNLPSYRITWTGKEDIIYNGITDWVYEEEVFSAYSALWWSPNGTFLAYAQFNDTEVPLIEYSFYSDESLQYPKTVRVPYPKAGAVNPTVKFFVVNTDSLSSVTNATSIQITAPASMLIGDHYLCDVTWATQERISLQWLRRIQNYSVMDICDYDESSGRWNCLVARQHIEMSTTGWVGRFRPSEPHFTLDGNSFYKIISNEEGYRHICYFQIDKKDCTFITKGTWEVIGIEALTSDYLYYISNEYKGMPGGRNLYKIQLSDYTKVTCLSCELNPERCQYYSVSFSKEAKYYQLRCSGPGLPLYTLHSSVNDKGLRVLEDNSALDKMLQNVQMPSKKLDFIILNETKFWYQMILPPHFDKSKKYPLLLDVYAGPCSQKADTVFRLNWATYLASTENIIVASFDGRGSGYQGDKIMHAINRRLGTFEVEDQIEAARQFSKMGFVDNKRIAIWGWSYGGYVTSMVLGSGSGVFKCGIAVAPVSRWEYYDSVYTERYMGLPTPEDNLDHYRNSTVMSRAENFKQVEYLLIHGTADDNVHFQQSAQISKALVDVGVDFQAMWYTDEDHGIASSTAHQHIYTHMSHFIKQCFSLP
Sequence of MCP-1 receptors (P41597 whole entry): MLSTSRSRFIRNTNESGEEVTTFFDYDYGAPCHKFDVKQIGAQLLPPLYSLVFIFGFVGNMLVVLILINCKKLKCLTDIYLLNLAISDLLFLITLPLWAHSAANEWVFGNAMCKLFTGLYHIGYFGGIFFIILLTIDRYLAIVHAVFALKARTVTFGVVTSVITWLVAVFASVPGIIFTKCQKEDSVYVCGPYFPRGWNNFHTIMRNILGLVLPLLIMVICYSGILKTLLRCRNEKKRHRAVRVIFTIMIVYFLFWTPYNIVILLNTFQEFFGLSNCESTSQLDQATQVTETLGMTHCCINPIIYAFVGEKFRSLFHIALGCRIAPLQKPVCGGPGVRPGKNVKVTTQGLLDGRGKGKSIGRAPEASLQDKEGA

## MCP-4: Human recombinant MCP-4 (SEQ ID NO: 13) carrying an N-terminal glutaminyl residue (Peprotech)
Recombinant human DP4
  proteolytic degradation by DP4 with N-terminal pGlu-residue: protects
  truncation by DP4 of uncyclized variants starting with N-terminal glutamine: readily truncated
Human THP-1 monocytes
  influence of pGlu-formation at the N-terminus on chemotactic potency: slightly increases
  chemotactic potency of N-truncated DP4 cleavage products: partial inactivation

## MCP-2: Human recombinant MCP-2 (SEQ ID NO: 11) carrying an N-terminal glutaminyl residue (Peprotech)
Recombinant human DP4
  truncation by DP4 of uncyclized variants starting with N-terminal glutamine: readily truncated
Human THP-1 monocytes
  influence of pGlu-formation at the N-terminus on chemotactic potency: no influence
  chemotactic potency of N-truncated DP4 cleavage products: partial inactivation

## CCC(C)C(N)C(=O)N1CCSC1 (stereo not shown) [Isoleucyl-Thiyzolidide, Isoleucyl-Thiazolidide]
[1]
  N-terminal degradation of MCP-1 in serum: prevents the N-terminal degradation

## Gln1-MCP-1: Recombinant human MCP-1(1-76) (SEQ ID NO: 1) starting with an N-terminal glutamine (Peprotech)
[2]; [3]
  final ratio, full-length pGlu1-MCP-1: ~40%
  final ratio, truncated Asp3-MCP-1: approx. 60%
Human THP-1 monocytes
  MCP-1 concentrations needed to elicit the maximum response: 500 to 1000 ng/mL

## MCP-1: monocyte chemotactic protein-1, CCL2; form in the cited binding study not stated
MCP-1 receptors
  Kd: 2.8 nM

## MCP-1, 1-10: peptide corresponding to MCP-1, 1-10 (QPDAINAPVT; UniProt P13500 24-33, looked up, fragment) [reference compound]
MCP-1 receptors
  receptor-binding activities: lacked detectable receptor-binding activities

## pGlu1-MCP-1: human MCP-1 with N-terminal pyroglutamic acid, generated by incubation of Gln1-MCP-1 with recombinant human QC
[2]; pre-incubation with human QC, chosen time-frame (24 h) and dilution of the serum, FIG. 7B
  degradation in human serum: no degradation
Human THP-1 monocytes
  MCP-1 concentrations needed to elicit the maximum response: 50 to 100 ng/mL

## MCP-3: Human recombinant MCP-3 (SEQ ID NO: 12) carrying an N-terminal glutaminyl residue (Peprotech)
Recombinant human DP4
  proteolytic degradation by DP4 with N-terminal pGlu-residue: protects
  truncation by DP4 of uncyclized variants starting with N-terminal glutamine: readily truncated
Human THP-1 monocytes
  influence of pGlu-formation at the N-terminus on chemotactic potency: no influence
  chemotactic potency of N-truncated DP4 cleavage products: partial inactivation
